Reference: patent publication US8637465B2, “Fibroblast growth factor receptor-derived peptides binding to NCAM” (Kobenhavns Universitet, priority 2009, dated 2014)
“Also recorded” adds a separate entry of the source.

Tests used:
[1] = biological target: T1, FGFR Ig2-NCAM F3(1-2) binding (Mus musculus, UniProt P16092); test: SPR analysis of inhibition of FGFR Ig2-NCAM F3(1-2) binding; set-up: species or system mouse FGFR1, rat NCAM; details: 20 μM Ig2 module of FGFR, indicated concentrations of SOS; FIG. 4
T1 construct: AGHHHHHH and amino acids 140-251 of FGFR (SwissProt p16092); made in house; host or cells: Pichia pastoris KM71
T1 sequence (P16092 140-251): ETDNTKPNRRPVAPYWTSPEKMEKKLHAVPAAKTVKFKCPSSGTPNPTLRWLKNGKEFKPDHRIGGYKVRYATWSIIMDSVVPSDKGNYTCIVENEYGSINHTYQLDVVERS
Method: The binding of 20 μM Ig2 module of FGFR to the immobilized NCAM F3 modules 1-2 was performed using indicated concentrations of SOS. The experiment was repeated 9 times. Immobilization of the NCAM and FGFR modules and binding analysis were performed using a BIAcore2000 instrument (Biosensor AB, Sweden) at 25° C. using 10 mM sodium phosphate containing 150 mM NaCl (pH 7.4) as running buffer. Data were analyzed by nonlinear curve fitting using the manufacturer's software. The FGFR Ig module 2 and NCAM F3 modules 1-2 were immobilized on sensor chip CM5 using an amine coupling kit (Biosensor AB) as follows: the chip was activated by 20 μl activation solution; the protein was immobilized using 12 μl of 20 μg/ml protein in 10 mM sodium acetate buffer (pH 6.0); the chip was blocked by 35 μl blocking solution. The curves corresponding to the difference between binding to ligand (immobilized molecule) and a blank chip were used for analysis. One of the identified clusters (the first one) is located in the close vicinity of the sites in Ig2 for binding of FGF, heparin and Ig2 (FIG. 3) (Plotnikov et al., 1999; Pellegrini et al., 2000). […] To verify this assumption, we tested sucrose octasulphate (SOS), a well-known heparin analogue, for its ability to inhibit binding of soluble Ig2 to the immobilized NCAM F3 modules.

[2] = biological target: T2, fibronectin modules (F3(1-2)) of NCAM (Rattus norvegicus, UniProt P13596); test: Binding of FGFR1-Ig2 derived peptides to immobilized fibronectin modules (F3(1-2)) of NCAM; details: FIG. 5 and FIG. 6
T2 construct: amino acids 507-611 and 507-705 of NCAM (SwissProt p13596), respectively; made in house; host or cells: Pichia pastoris KM71
Method: Immobilization of the NCAM and FGFR modules and binding analysis were performed using a BIAcore2000 instrument (Biosensor AB, Sweden) at 25° C. using 10 mM sodium phosphate containing 150 mM NaCl (pH 7.4) as running buffer. Data were analyzed by nonlinear curve fitting using the manufacturer's software. The FGFR Ig module 2 and NCAM F3 modules 1-2 were immobilized on sensor chip CM5 using an amine coupling kit (Biosensor AB) as follows: the chip was activated by 20 μl activation solution; the protein was immobilized using 12 μl of 20 μg/ml protein in 10 mM sodium acetate buffer (pH 6.0); the chip was blocked by 35 μl blocking solution. The curves corresponding to the difference between binding to ligand (immobilized molecule) and a blank chip were used for analysis.

NCAM F3 modules 1-2 = biological target: T3, NCAM F3 modules 1-2 (Rattus norvegicus, UniProt P13596); test: SPR binding of soluble FGFR Ig2 module to immobilized NCAM F3 modules 1-2; details: 25° C., pH 7.4, FIG. 1A, estimated
T3 construct: amino acids 507-611 and 507-705 of NCAM (SwissProt p13596), respectively; made in house; host or cells: Pichia pastoris KM71
Text: (§1) To study the binding properties between the FGFR Ig2 module and NCAM, we used recombinant proteins of the NCAM F3 modules 1-2 and the FGFR1 Ig2 module. Both proteins were properly folded as judged by one-dimensional NMR.
(§2) The Ig2 module of mouse FGFR1 (IIIc isoform) and rat NCAM F3 modules 1-2 were produced. Both proteins were expressed in a KM71 strain of yeast expression system of P. pastoris (Invitrogen, USA). The FGFR Ig module 2 consists of AGHHHHHH and amino acids 140-251 of FGFR (SwissProt p16092) and the combined F3 modules 1 and 2 consist of AGHHHHHH and amino acids 507-611 and 507-705 of NCAM (SwissProt p13596), respectively. For the protein expression the following media were used: BMGH (0.1 M potassium phosphate pH 6.0, 3.4 g/L yeast nitrogen base (without amino acids and ammonium sulphate), 10 g/L ammonium sulphate, 400 μg/L D-biotin, 60 mg/L L-histidine, 2% glycerol) and BMMH (0.1 M potassium phosphate pH 6.0, 3.4 g/L yeast nitrogen base (without amino acids and ammonium sulphate), 10 g/L ammonium sulphate, 400 μg/L D-biotin, 60 mg/L L-histidine, 1% methanol). […]
(§3) Immobilization of the NCAM and FGFR modules and binding analysis were performed using a BIAcore2000 instrument (Biosensor AB, Sweden) at 25° C. using 10 mM sodium phosphate containing 150 mM NaCl (pH 7.4) as running buffer. Data were analyzed by nonlinear curve fitting using the manufacturer's software. […]

FGFR1 Ig2 module = biological target: T4, FGFR1 Ig2 module (Mus musculus, UniProt P16092); test: SPR binding of soluble NCAM F3 modules 1-2 to immobilized FGFR Ig2 module; details: 25° C., pH 7.4, FIG. 1B, estimated
T4 construct: AGHHHHHH and amino acids 140-251 of FGFR (SwissProt p16092); made in house; host or cells: Pichia pastoris KM71
T4 sequence (P16092 140-251): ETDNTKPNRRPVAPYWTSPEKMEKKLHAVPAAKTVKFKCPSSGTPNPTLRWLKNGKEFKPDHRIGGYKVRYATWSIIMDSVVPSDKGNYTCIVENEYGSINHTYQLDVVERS
Text: as §1, §2, §3

FGFR Ig2-Ig3 construct = biological target: T5, FGFR Ig2-Ig3 construct (Mus musculus, UniProt P16092); details: SPR; Kiselyov et al., 2003; read-out: dissociation constant (Kd), NCAM F3 modules 1-2 binding to FGFR Ig2-Ig3 construct; cited from earlier work
T5 construct: the double-module FGFR Ig2-Ig3 construct
T5 sequence (P16092 141-365 limits assumed): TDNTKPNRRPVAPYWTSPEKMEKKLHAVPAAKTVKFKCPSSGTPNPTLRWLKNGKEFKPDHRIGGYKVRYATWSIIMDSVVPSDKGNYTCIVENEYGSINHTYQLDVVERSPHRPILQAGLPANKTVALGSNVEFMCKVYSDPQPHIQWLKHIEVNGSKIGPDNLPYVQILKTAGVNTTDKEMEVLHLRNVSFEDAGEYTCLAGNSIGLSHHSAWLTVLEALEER

For `O=S(=O)(O)OC[C@H]1O[C@@](COS(=O)(=O)O)(O[C@H]2O[C@H](COS(=O)(=O)O)[C@@H](OS(=O)(=O)O)[C@H](OS(=O)(=O)O)[C@H]2OS(=O)(=O)O)[C@@H](OS(=O)(=O)O)[C@@H]1OS(=O)(=O)O` [SOS, sucrose octasulphate], the “inhibition of binding of soluble Ig2 to the immobilized NCAM F3 modules” value [1] was “capable of inhibiting; also recorded: inhibitory effect”.

With “RWLKNGKEFK (Derived from FGFR) [SEQ ID NO:3, FGFR1-Ig2 derived peptide (amino acids 189-198)]” the “binding to the immobilized fibronectin modules (F3(1-2)) of NCAM” value [2] was “binding”.

For “AKTVKFK (Derived from FGFR) [SEQ ID NO:2, FGFR1-Ig2 derived peptide (amino acids 171-177)]”, the “binding to the immobilized fibronectin modules (F3(1-2)) of NCAM” value [2] was “binding”.

B1: FGFR Ig2 module: recombinant Ig2 module of mouse FGFR1 (IIIc isoform): AGHHHHHH and amino acids 140-251 of FGFR (SwissProt p16092) (protein)
chain: AGHHHHHHETDNTKPNRRPVAPYWTSPEKMEKKLHAVPAAKTVKFKCPSSGTPNPTLRWLKNGKEFKPDHRIGGYKVRYATWSIIMDSVVPSDKGNYTCIVENEYGSINHTYQLDVVERS
With B1 the Kd (NCAM F3 modules 1-2) was 35 µM.

B2: NCAM F3 modules 1-2: recombinant rat NCAM fibronectin type III modules 1-2 with AGHHHHHH tag (SwissProt p13596) (protein)
chain: AGHHHHHHQADTPSSPSIDRVEPYSSTAQVQFDEPEATGGVPILKYKAEWKSLGEEAWHSKWYDAKEANMEGIVTIMGLKPETRYAVRLAALNGKGLGEISAATEFKTQPVREPSAPKLEGQMGEDGNSIKVNLIKQDDGGSPIRHYLVKYRALASEWKPEIRLPSGSDHVMLKSLDWNAEYEVYVVAENQQGKSKAAHFVFRTSAQ
In the case of B2, the Kd (FGFR1 Ig2 module) is listed as 12 µM and the Kd (FGFR Ig2-Ig3 construct) is listed as 10 µM.
